For one substance, stoichiometry N results are on record in article PMC6952060.

For this experiment, the target named is Sulfolobus acidocaldarius soluble FlaF (sFlaF) (Sulfolobus acidocaldarius). The experiment in a line: SEC. (In general: Size exclusion chromatography separates by hydrodynamic size, large species first.)

“Sulfolobus acidocaldarius soluble FlaF (sFlaF) (domain or fragment)” had a stoichiometry N of 2.

Usually stoichiometry N stands for a count of units in the complex or per binding partner.
